The source of these data is publication PMC10397247.

One assay addresses T1, Core_IIII-es_KEKK.
T1 chain: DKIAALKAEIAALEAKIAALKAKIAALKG
In words: two-hybrid library CCmax.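 Further: natural log of median RNA to DNA barcode read ratio; higher means stronger binding.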 Particulars: mean of both orientations.

The target of another assay is T2, 4H1081-bA.
T2 chain: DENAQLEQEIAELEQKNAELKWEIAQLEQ
In words: two-hybrid library CCNG1.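 Further: natural log of median RNA to DNA barcode read ratio; higher means stronger binding.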 Particulars: mean of both orientations.

In another assay the target is T3, 4H112-bA.
T3 chain: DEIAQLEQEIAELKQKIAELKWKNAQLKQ
The experiment in a line: two-hybrid library CCNG1.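 Further: natural log of median RNA to DNA barcode read ratio; higher means stronger binding.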

In a further assay the target is T4, 4H1158-bA.
T4 chain: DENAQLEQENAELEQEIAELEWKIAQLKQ
In words: two-hybrid library CCNG1.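 Further: natural log of median RNA to DNA barcode read ratio; higher means stronger binding.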

Another assay deals with T5, 4H118-bA.
T5 chain: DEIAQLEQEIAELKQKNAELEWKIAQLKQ
The experiment in a line: two-hybrid library CCNG1.

The next assay has as its target T6, 4H1348-bA.
T6 chain: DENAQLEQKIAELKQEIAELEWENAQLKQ
In words: two-hybrid library CCNG1.

The next assay addresses T7, 4H1373-bA.
T7 chain: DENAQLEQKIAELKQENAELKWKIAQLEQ
In words: two-hybrid library CCNG1.

The next assay concerns the target T8, 4H1544-bA.
T8 chain: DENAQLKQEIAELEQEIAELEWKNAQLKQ
The experiment in a line: two-hybrid library CCNG1.

The target in another assay is T9, 4H170-bA.
T9 chain: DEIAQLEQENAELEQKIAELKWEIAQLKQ
The experiment in a line: two-hybrid library CCNG1.

In another assay the target is T10, 4H1710-bA.
T10 chain: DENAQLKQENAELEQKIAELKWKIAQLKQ
The experiment in a line: two-hybrid library CCNG1.

The next assay deals with T11, 4H1831-bA.
T11 chain: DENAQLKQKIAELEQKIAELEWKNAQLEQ
In words: two-hybrid library CCNG1.

A further assay has as its target T12, 4H1899-bA.
T12 chain: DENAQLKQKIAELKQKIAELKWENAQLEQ
In words: two-hybrid library CCNG1.

A further assay addresses T13, 4H1985-bA.
T13 chain: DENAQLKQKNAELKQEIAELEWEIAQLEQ
The experiment in a line: two-hybrid library CCNG1.

Another assay addresses T14, 4H2586-bA.
T14 chain: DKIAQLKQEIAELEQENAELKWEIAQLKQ
The experiment in a line: two-hybrid library CCNG1.

A further assay deals with T15, 4H2627-bA.
T15 chain: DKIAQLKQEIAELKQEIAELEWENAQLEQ
In words: two-hybrid library CCNG1.

Another assay has as its target T16, 4H2673-bA.
T16 chain: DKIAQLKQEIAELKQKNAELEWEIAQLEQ
In words: two-hybrid library CCNG1.

A further assay concerns the target T17, 4H2702-bA.
T17 chain: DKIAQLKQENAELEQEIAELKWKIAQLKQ
In words: two-hybrid library CCNG1.

The next assay deals with T18, 4H3010-bA.
T18 chain: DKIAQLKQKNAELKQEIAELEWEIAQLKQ
The experiment in a line: two-hybrid library CCNG1.

In a further assay the target is T19, 4H3112-bA.
T19 chain: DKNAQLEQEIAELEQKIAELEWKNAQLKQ
The experiment in a line: two-hybrid library CCNG1.

The next assay addresses T20, 4H3162-bA.
T20 chain: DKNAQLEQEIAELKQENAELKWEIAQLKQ
The experiment in a line: two-hybrid library CCNG1.

Another assay addresses T21, 4H3175-bA.
T21 chain: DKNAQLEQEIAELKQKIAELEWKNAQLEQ
The experiment in a line: two-hybrid library CCNG1.

Another assay deals with T22, 4H3277-bA.
T22 chain: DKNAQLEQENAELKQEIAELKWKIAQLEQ
The experiment in a line: two-hybrid library CCNG1.

A further assay concerns the target T23, 4H3298-bA.
T23 chain: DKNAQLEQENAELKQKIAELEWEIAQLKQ
The experiment in a line: two-hybrid library CCNG1.

The next assay concerns the target T24, 4H3427-bA.
T24 chain: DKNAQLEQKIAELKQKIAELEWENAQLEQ
The experiment in a line: two-hybrid library CCNG1.

In the next assay the target is T25, 4H346-bA.
T25 chain: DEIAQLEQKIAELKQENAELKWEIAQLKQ
In words: two-hybrid library CCNG1.

The next assay concerns the target T26, 4H3462-bA.
T26 chain: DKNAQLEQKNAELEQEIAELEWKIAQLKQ
In words: two-hybrid library CCNG1.

In another assay the target is T27, 4H3497-bA.
T27 chain: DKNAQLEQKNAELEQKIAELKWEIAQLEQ
The experiment in a line: two-hybrid library CCNG1.

The next assay concerns the target T28, 4H3613-bA.
T28 chain: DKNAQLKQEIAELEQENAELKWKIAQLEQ
The experiment in a line: two-hybrid library CCNG1.

Another assay addresses T29, 4H3628-bA.
T29 chain: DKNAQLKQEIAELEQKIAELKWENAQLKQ
The experiment in a line: two-hybrid library CCNG1.

For another assay, the target named is T30, 4H3926-bA.
T30 chain: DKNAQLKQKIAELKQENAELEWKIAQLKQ
In words: two-hybrid library CCNG1. Particulars: mean of both orientations.

A further assay has as its target T31, 4H4073-bA.
T31 chain: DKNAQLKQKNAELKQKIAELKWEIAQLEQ
The experiment in a line: two-hybrid library CCNG1.

For the next assay, the target named is T32, 4H457-bA.
T32 chain: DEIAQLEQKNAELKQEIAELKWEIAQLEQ
The experiment in a line: two-hybrid library CCNG1.

The target in a further assay is T33, 4H575-bA.
T33 chain: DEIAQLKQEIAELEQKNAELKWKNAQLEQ
In words: two-hybrid library CCNG1.

The target of another assay is T34, 4H591-bA.
T34 chain: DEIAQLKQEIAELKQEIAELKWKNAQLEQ
The experiment in a line: two-hybrid library CCNG1.

A further assay concerns the target T35, 4H626-bA.
T35 chain: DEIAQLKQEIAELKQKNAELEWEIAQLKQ
The experiment in a line: two-hybrid library CCNG1.

A further assay concerns the target T36, 4H683-bA.
T36 chain: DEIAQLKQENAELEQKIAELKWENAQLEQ
In words: two-hybrid library CCNG1.

The next assay addresses T37, 4H754-bA.
T37 chain: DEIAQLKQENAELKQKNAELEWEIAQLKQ
The experiment in a line: two-hybrid library CCNG1.

In another assay the target is T38, 4H780-bA.
T38 chain: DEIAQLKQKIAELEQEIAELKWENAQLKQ
In words: two-hybrid library CCNG1.

A further assay addresses T39, 4H797-bA.
T39 chain: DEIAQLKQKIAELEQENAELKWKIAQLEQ
In words: two-hybrid library CCNG1.

The target in a further assay is T40, 4H855-bA.
T40 chain: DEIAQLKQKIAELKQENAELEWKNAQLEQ
The experiment in a line: two-hybrid library CCNG1.

Another assay concerns the target T41, 4H906-bA.
T41 chain: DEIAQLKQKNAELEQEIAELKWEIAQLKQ
In words: two-hybrid library CCNG1.

The target of another assay is T42, 4H918-bA.
T42 chain: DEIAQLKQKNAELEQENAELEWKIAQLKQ
In words: two-hybrid library CCNG1.

The target in the next assay is T43, 4H953-bA.
T43 chain: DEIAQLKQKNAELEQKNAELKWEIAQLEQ
In words: two-hybrid library CCNG1.

Another assay concerns the target T44, 4H968-bA.
T44 chain: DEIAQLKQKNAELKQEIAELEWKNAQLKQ
The experiment in a line: two-hybrid library CCNG1.

For another assay, the target named is T45, O6.
T45 chain: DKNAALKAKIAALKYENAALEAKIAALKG
The experiment in a line: two-hybrid library CCNG1.

The target in another assay is T46, P8SHb.
T46 chain: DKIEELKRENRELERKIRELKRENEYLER
The experiment in a line: two-hybrid library CCNG1.

As for DEIAALEAKIAALKAEIAALEAEIAALEG [Core_IIII-es_EKEE], in the assay with Core_IIII-es_KEKK, the interaction score turned out to be 1.78.
With DENAQLEQEIAELEQKNAELKWEIAQLEQ [4H1081-bA], the interaction score is -1.09 with 4H1081-bA; -0.18 with 4H112-bA; -1.28 with 4H1158-bA; -0.618 with 4H118-bA; -0.834 in the assay with 4H1348-bA; -0.306 in the assay with 4H1373-bA. The interaction score with 4H1544-bA was -0.272; with 4H170-bA it was -0.98; with 4H1710-bA it was -1.02; with 4H1831-bA, -0.839; with 4H1899-bA it was -0.763; with 4H1985-bA, -0.96. Moreover, the interaction score is -1 in the assay with 4H2586-bA; -0.693 with 4H2627-bA; -0.717 with 4H2673-bA; 0.457 in the assay with 4H2702-bA; -0.178 with 4H3010-bA; -0.897 with 4H3112-bA. The interaction score with 4H3162-bA is -0.581; with 4H3175-bA it was -1.47; with 4H3277-bA it was -0.575; in the assay with 4H3298-bA, -0.916; with 4H3427-bA it was -0.645; with 4H346-bA it was -0.753. Further, the interaction score in the assay with 4H3462-bA was -0.859; with 4H3497-bA, -1.1; with 4H3613-bA it was -0.495; with 4H3628-bA it was -1.07; in the assay with 4H3926-bA, 2.57; with 4H4073-bA, -0.497. Further, the interaction score was -0.799 with 4H457-bA; -1.21 with 4H575-bA; -0.855 with 4H591-bA; -0.689 with 4H626-bA; -0.217 with 4H683-bA; -0.461 with 4H754-bA. Besides, the interaction score with 4H780-bA was -0.865; with 4H797-bA it was -1.17; in the assay with 4H855-bA, -0.154; with 4H906-bA, -0.875; with 4H918-bA, -0.671; in the assay with 4H953-bA it was -1.23. The interaction score was -1.8 with 4H968-bA, 1.04 in the assay with O6 and -1.25 in the assay with P8SHb.
